Reference: patent publication US20200270343A1 (COMPUGEN, published 2020)

T1: human VSIG10 flag protein over-expressed in HEK293 cells (stable pool) (human)
T1 chain: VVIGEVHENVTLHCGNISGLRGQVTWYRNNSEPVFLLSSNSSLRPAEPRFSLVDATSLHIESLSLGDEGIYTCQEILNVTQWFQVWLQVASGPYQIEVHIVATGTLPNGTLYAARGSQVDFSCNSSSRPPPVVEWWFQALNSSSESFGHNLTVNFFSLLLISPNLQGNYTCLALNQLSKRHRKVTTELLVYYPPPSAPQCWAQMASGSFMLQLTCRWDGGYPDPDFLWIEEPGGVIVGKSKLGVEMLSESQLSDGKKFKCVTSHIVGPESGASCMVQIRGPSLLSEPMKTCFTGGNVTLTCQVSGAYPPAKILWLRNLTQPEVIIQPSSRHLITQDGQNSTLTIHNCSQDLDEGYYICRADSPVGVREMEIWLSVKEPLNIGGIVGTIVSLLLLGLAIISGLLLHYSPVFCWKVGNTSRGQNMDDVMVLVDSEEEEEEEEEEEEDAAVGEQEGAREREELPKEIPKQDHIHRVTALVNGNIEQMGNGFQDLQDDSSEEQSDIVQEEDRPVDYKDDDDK


Legend:
[1] = molecular target: human VSIG10 protein endogenously expressed on human cell lines (DAN-G, AsPc1/ASPC-1, DU-145, ZR-75) (human) (UniProt Q8N0Z9); test: FACS on AsPc1 cells after VSIG10 siRNA knock down; 10 ug/ml mAb vs mIgG1 kappa isotype
[2] = molecular target: human VSIG10 protein endogenously expressed on human cell lines (DAN-G, AsPc1/ASPC-1, DU-145, ZR-75) (human) (UniProt Q8N0Z9); test: FACS on DAN-G cells after VSIG10 siRNA knock down; 10 ug/ml mAb vs mIgG1 kappa isotype
[3] = molecular target: human VSIG10 protein endogenously expressed on human cell lines (DAN-G, AsPc1/ASPC-1, DU-145, ZR-75) (human) (UniProt Q8N0Z9); test: FACS on DAN-G cells transfected with scrambled (non-target) siRNA; 10 ug/ml mAb vs mIgG1 kappa isotype
[4] = molecular target: human VSIG10 protein endogenously expressed on human cell lines (DAN-G, AsPc1/ASPC-1, DU-145, ZR-75) (human) (UniProt Q8N0Z9); test: FACS on AsPc1 cells transfected with scrambled (non-target) siRNA; 10 ug/ml mAb vs mIgG1 kappa isotype
[5] = molecular target: T1, human VSIG10 flag protein …; test: FACS titration (8 concentrations) on HEK293 cells over-expressing human VSIG10 Flag; Kd from binding curve
Experimental: (§1) The mAb binding was evaluated on HEK293 cells over expressing human VSIG10 as well.
(§2) Detection was carried out using Goat Anti mouse-PE secondary Ab.

[6] = molecular target: T1, human VSIG10 flag protein …; test: FACS on HEK293 cells over-expressing human VSIG10 Flag vs HEK293 empty vector cells; goat anti mouse PE detection
Experimental: The performance of the purified mAbs against human VSIG10, in FACS application were tested using HEK293 cells over-expressing human VSIG10 Flag. HEK293 cells transfected with an empty vector were used as a negative control.
Detection was carried out using Goat anti mouse PE secondary Ab.

[7] = molecular target: human VSIG10 protein endogenously expressed on human cell lines (DAN-G, AsPc1/ASPC-1, DU-145, ZR-75) (human) (UniProt Q8N0Z9); test: FACS titration (8 concentrations) on ASPC-1 human cell line endogenously expressing VSIG10, vs mIgG1 kappa isotype; Kd from binding curve
[8] = molecular target: T1, human VSIG10 flag protein …; test: FACS titration (4 concentrations) on HEK293 cells over-expressing human VSIG10 Flag; Kd from binding curve
Experimental: as §1, §2

[9] = molecular target: human VSIG10 protein endogenously expressed on human cell lines (DAN-G, AsPc1/ASPC-1, DU-145, ZR-75) (human) (UniProt Q8N0Z9); test: FACS titration (4 concentrations) on DU-145 human cell line endogenously expressing VSIG10, vs mIgG1 kappa isotype; Kd from binding curve

| MFI ratio of anti VSIG10 versus isotype control [1] [fold] | MFI ratio of anti VSIG10 versus isotype control [2] [fold] | MFI ratio of anti VSIG10 versus isotype control [3] [fold] | MFI ratio of anti VSIG10 versus isotype control [4] [fold] | Kd [5] [nM] | fold change MFI ratio (VSIG10 Flag cells vs empty vector cells) [6] [fold] | Kd [7] [nM] | Kd [8] [nM] | Kd [9] [nM] | Binder |
| --- | --- | --- | --- | --- | --- | --- | --- | --- | --- |
| 4.4 | 2.8 | 9.5 | 9.5 | 4.14 | 219 | 5.85 | – | – | AB-576 anti-human VSIG10 mouse monoclonal antibody (antibody, V domains shown, clonal supernatant was also tested in WB) VH: EVQLQQSGPELVKPGASVKMSCKASGYTFTDYYMKWVKQSHGKSLEWIGDINPNNGGTTYNQKFKGKATLTVDKSSNTAYMQFNSLTSEDSAVYFCARFRLRAMDYWGQGTSVTVSS VL: DIVMTQSPSSLTVTAGEKVTMSCKSSQSLLNSGDRKNYLTWYQQRPGLPPKLLIYWASTRESGVPDRFTGSGSGTDFTLTISSVQSEDLAVYFCQNDYIYPLTFGAGTKLELK |
| 5.2 | 3.54 | 12 | 9.3 | – | 160 | – | 4.67 | 4.62 | AB-577 anti-human VSIG10 mouse monoclonal antibody (antibody, V domains shown, clonal supernatant was also tested in WB) VH: QVQLQQSGPELVRPGASVKMSCKPSGYRFTDYAISWVKQRTGQGLEWVGEIYPGNGNTYFNEKFKDKATLTADRSSNTAYMQLSSLTSEDSAVYFCARGYANYLPWGQGTLVTVSA VL: DIQMTQSSSSFSVSLGDRVTITCKASEDIYNRLAWYQQKPGNAPRLLISGATGLETGVPSRISGSGSGRDYTLSITSLQTEDVGTYYCQQYWSTPRTFGGGTKLEIK |
